Measured values reported in the supplement of paper PMC10567573.
± gives the standard deviation.

Assay: protein stability index of a GFP-peptide fusion (GPS, HEK-293T) (PSI 1-6); higher = more stable
[1] = treatment: DMSO, c terminus: a fixed tail appended
[2] = treatment: MLN4924 1 uM, 8 h, c terminus: a fixed tail appended
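Further: 24-mer peptide tiles fused after GFP, lentivirally expressed, FACS-sorted into six equal bins by GFP/DsRed ratio, decoded by Illumina sequencing, PSI is the read-weighted mean bin number.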

Sequence	protein stability index [1]	protein stability index [2]	protein stability index (treatment: DMSO, c terminus: native)	protein stability index (treatment: MLN4924 1 uM, 8 h, c terminus: native)
KQLLSNKELILDKVYTHPKWNTQT [ZC2HC1C]	2.79 ± 0.14	3.15 ± 0.23	–	–
ESCEEKNQLILTASADRTVIVWDG [WDR41]	4.01 ± 0.085	3.79 ± 0.1	–	–
ELHPESGEEAVTLVEDMQRELGRL [ZNF263]	4.88 ± 0.41	5.13 ± 0.26	–	–
VMSGKMSVSKAQSIYGIPHSTLEY [LCOR]	2.38 ± 0.19	2.23 ± 0.076	–	–
AHRTEFYRNLTHNPPSDFSFQNMN [STK38L]	2.84 ± 0.34	2.88 ± 0.24	–	–
SSGEPVDYNVDIGIPLDGETEEL [MYOZ1]	–	–	5.5 ± 0.21	5.23 ± 0.17
DASSSTSTSSSFPSSFPSSSSSSS [MAGEA10]	5.07 ± 0.37	5.23 ± 0.085	–	–
FLEQRPQSPTLEFLLRNSQRTVGQ [EDARADD]	3.15 ± 0.32	3.43 ± 0.34	–	–
VFIIRKSLLDELMEVQHFRTIYHM [SOAT2]	2.85 ± 0.61	2.58 ± 0.46	–	–
KLVHFLLLKYRAREPVTKAEMLGS [MAGEA6]	2.81 ± 0.48	2.78 ± 1.3	–	–
VARCEVMAAMFNGNYMEAKSVLIP [RHOBTB3]	2.16 ± 0.29	2.24 ± 0.17	–	–
LFRELWRYHFATGVWHQMGTDGYM [KLHDC10]	3 ± 0.66	2.8 ± 0.47	–	–
RHRQEVLCKEMVPLAEQTPLTLQS [ZSCAN9]	4.31 ± 0.18	4.21 ± 0.077	–	–
TPASQSPKKPPAKDPLADLNIKDF [SNAP91]	5.06 ± 0.092	4.87 ± 0.25	–	–
GPQLEGEKDWGLEGYVWRGSQLED [ZSWIM9]	4.52 ± 0.23	4.45 ± 0.28	–	–
EIENVKKQASNLETAIADAEQRGD [KRT71]	5.29 ± 0.49	5.42 ± 0.3	–	–
KDDKDFTGTVHRIDNTTVIYNSNI [KCNA1]	4.29 ± 0.2	4.37 ± 0.2	–	–
GHNSPLYKRQEESGAAASLNVDAA [CHIT1]	5.19 ± 0.19	5.11 ± 0.22	–	–
ALAVCLSFFYPVLFVLFMFFGMAF [SOAT1]	2.84 ± 0.46	2.94 ± 0.75	–	–
YQGLPVRCVKSIIRQVLQGLDYLH [SRPK2]	2.45 ± 0.27	2.59 ± 0.41	–	–
KQEENDVVEKLNLFLDLLQSYKDL [SNX8]	1.95 ± 0.29	2.12 ± 0.31	–	–
QGHPPSLFPPKAKSNQPKSLEDLI [ATE1]	4.25 ± 0.081	4.19 ± 0.16	–	–
DEMCANNDFVQVDPGQVGLINSNV [FAN1]	4.82 ± 0.2	4.78 ± 0.35	–	–

Sequence	protein stability index [1]	protein stability index [2]	protein stability index (treatment: DMSO, c terminus: native)	protein stability index (treatment: MLN4924 1 uM, 8 h, c terminus: native)
KTEITDLRRTMQELEIELQSQLSM [KRT15]	3.79 ± 0.39	3.5 ± 0.24	–	–
SSARIPKCPWMEGGEMSPQVETSI [INTS4]	3.9 ± 0.14	4.12 ± 0.1	–	–
LEASVQDDAGTSGGPSSPPSDPPA [C2CD2L]	5.53 ± 0.31	5.66 ± 0.12	–	–
GHNDWVMDVAISNNKKWILSASKD [WDR88]	3.19 ± 0.33	3.22 ± 0.59	–	–
LRAPTISDLLNDQDLLDVIRIKLD [EDARADD]	2.11 ± 0.61	2.06 ± 0.29	–	–
ARRTTRSEPIRRAGKSGTSTPTTP [MAP2]	4.66 ± 0.12	4.8 ± 0.12	–	–
STPRPSITPTKKIELDRTIMPDGT [C2CD2L]	4.76 ± 0.24	4.87 ± 0.17	–	–
PGLGQESKAPGSCDPGTDPCPEDA [TLE6]	5.65 ± 0.27	5.55 ± 0.22	–	–
DDEFFHFVLLCFAIGALLVCYHYY [TMEM40]	2.27 ± 0.39	2.37 ± 0.88	–	–
IDYKTTTILLDGRRVKLQLWDTSG [RAB40B]	2.42 ± 0.12	2.56 ± 0.24	–	–
QYREAAGPHEAFNKLWELCCQWLK [ZNF449]	2.93 ± 0.53	3.05 ± 1	–	–
GGGSGSAPGPSRIADYLLLPLAER [TRIB1]	3.62 ± 0.48	–	–	–
KYQANITETQRLGLAMALEPNTTF [FANCE]	3.36 ± 0.17	3.4 ± 0.15	–	–
GEREPFAETDEHTGANTKKPEDTA [FAM9B]	5.46 ± 0.22	5.54 ± 0.52	–	–
TMLTVIEQPVPPTPATPEDPAPLW [EMID1]	3.76 ± 0.28	3.77 ± 0.23	–	–
NGINGELTSADRETAEEVSARIVQ [MAP2]	5.23 ± 0.22	5.35 ± 0.18	–	–
FSVLMEKLCKKGLAATTSMAYAKL [FANCE]	3.19 ± 0.73	2.75 ± 0.56	–	–
SRALALFDIQKIMQEKNPVHVIGV [ZNF8]	2.52 ± 0.27	1.89 ± 0.39	–	–
LRRHAGLLDGLARRVGILGEELAD [SCARA5]	3.37 ± 0.17	3.34 ± 0.18	–	–
DSYIPLHEDLLTRIGEATKPDGTV [NET1]	4.5 ± 0.43	4.73 ± 0.28	–	–
YNSFHKLRDRAERIASRAIDNAAD [SNX8]	3.98 ± 0.43	4.14 ± 0.38	–	–
EPRQRRLLLLDLLALYTPVGAAGS [ANKRD9]	2.65 ± 0.57	2.44 ± 0.88	–	–
AEDLGNLWENTRFTDCSFFVRGQE [SPOPL]	3.69 ± 0.32	3.74 ± 0.24	–	–

Sequence	protein stability index [1]	protein stability index [2]	protein stability index (treatment: DMSO, c terminus: native)	protein stability index (treatment: MLN4924 1 uM, 8 h, c terminus: native)
IEVFRRKRKMHLVFEYCDHTLLNE [CDKL4]	2.54 ± 0.98	2.33 ± 0.14	–	–
LLDAHILEWHDSLFQILSERQDMY [ZNF511]	2.32 ± 0.4	2.17 ± 0.23	–	–
LVATNAHLDHYYQEELPALLKALV [FCHSD1]	2.24 ± 0.23	2.19 ± 0.36	–	–
EADSQEQGHPQTGCECEDGPDGQE [GAGE1]	5.57 ± 0.28	5.57 ± 0.15	–	–
AAKFPSGSQRARVVNTDHGSPEQL [SDE2]	4.56 ± 0.44	4.81 ± 0.17	–	–
VQERLTKQIAVAITEALRPAGVGV [GCH1]	2.23 ± 0.2	2.17 ± 0.13	–	–
KQVCKIAALHGLEETKKLANKYLV [KLHL14]	2.03 ± 0.31	2.35 ± 0.32	–	–
VAQGPFDSFVVQYEDTNGQPQALL [TNXB]	3.43 ± 0.44	3.16 ± 0.46	–	–
SLQESVEDSLATVKVVLIPVGQEI [IQUB]	2.49 ± 0.53	2.24 ± 0.46	–	–
HLNETVKAPDIECVLRCSVLEIEQ [FEM1B]	3.07 ± 0.49	3.13 ± 0.44	–	–
RFRFPSPILKVQYHPRDQNKVLVC [RBBP5]	2.32 ± 0.11	2.32 ± 0.21	–	–
NNGIFQINSRRWCSNLTPNVPNVC [SPACA3]	2.6 ± 0.28	2.63 ± 0.25	–	–
CWYCNRDFDDEKILIQHQKAKHFK [ZNF207]	4.59 ± 0.39	4.45 ± 0.22	–	–
VLHIVASLIILHLSGATKKGTEKQ [NETO1]	2.78 ± 0.57	2.9 ± 0.65	–	–
AALNNHPDIMNLLIKSGAHFDATN [FEM1C]	2.41 ± 0.24	2.54 ± 0.3	–	–
RSHLIGHQRTHSEEETYKCLECGK [ZNF449]	4.26 ± 0.16	4.39 ± 0.26	–	–
YDGLDCQARQFRTFHHPTYGSCYT [SCNN1D]	2.54 ± 0.1	2.59 ± 0.18	–	–
GRQLEKVPEKRDSGMTEVERTYSA [SPATS1]	5.22 ± 0.3	5.24 ± 0.4	–	–
TAKDFIVGKSLTILGRTFFIYDCD [EFHC1]	2.93 ± 0.49	2.28 ± 0.34	–	–
KAPSTDDATWAAVAACTKEIDTQG [C10orf62]	5.14 ± 0.2	5.11 ± 0.09	–	–
SGLLEELNAEAGHLDPGFLASDKT [C18orf25]	4.96 ± 0.18	4.76 ± 0.12	–	–
NQVSSNSWGIAGETELALVKESGE [DLC1]	5.17 ± 0.41	5.23 ± 0.2	–	–
GLSAEDGVWAVIISHQQCWASTSP [TRIM15]	2.88 ± 0.51	2.39 ± 0.73	–	–

Sequence	protein stability index [1]	protein stability index [2]	protein stability index (treatment: DMSO, c terminus: native)	protein stability index (treatment: MLN4924 1 uM, 8 h, c terminus: native)
RLVDAVLGAEIRNGMAIIRPPGHH [HDAC6]	1.96 ± 0.17	2.02 ± 0.35	–	–
NSRRNINYRSFEPILRLLPQGISP [ZER1]	2.3 ± 0.2	2.54 ± 0.17	–	–
KTLQPTKQPNCSSLFKLKPLSNKT [PLD5]	3.08 ± 0.17	3.09 ± 0.35	–	–
MSLLHLGALYGITLIPTCKFYTWL [SCD]	3.01 ± 0.57	3.74 ± 0.94	–	–
LTEQYTVTGLMEATQMMVDIDGDV [RHOBTB2]	4.66 ± 0.33	4.63 ± 0.29	–	–
RELRCKVFPIKHYQDKIRPYIQLP [TRIB1]	2.15 ± 0.42	2.32 ± 0.1	–	–
VGYGDMHPVTIGGKIVGSLCAIAG [KCNA3]	2.67 ± 0.11	2.26 ± 0.35	–	–
MLQKPKSVKLRALRSPRKFGVAGR [DFFB]	2.94 ± 0.27	3.26 ± 0.35	–	–
QFLKELLLKPHSYGRFIRWLNKEK [SPDEF]	2.28 ± 0.43	2.21 ± 0.25	–	–
VQRTQSVPVRRPARRRQSAGPWPR [RASAL3]	4.55 ± 0.26	4.48 ± 0.096	–	–
QPMQNGEEDRPLGGGEGHQPAGNR [BEX3]	5.42 ± 0.4	5.36 ± 0.35	–	–
INLEGKTFYSKKDRPLCKSHAFSH [PDLIM7]	2.55 ± 0.077	2.71 ± 0.33	–	–
QLIVTARTTRGLDPLFGMCEKFLQ [INTS4]	2.15 ± 0.4	2.06 ± 0.3	–	–
LPIKIAAIIASLTFLYTLLREVIH [STEAP1]	2.53 ± 0.41	1.82 ± 0.64	–	–
QGTAEEDHVDLSLSCTLVPRSGEQ [CDKN1A]	5.19 ± 0.12	5.2 ± 0.28	–	–
KIQNHGHRVLQRLEQRRQQASERE [FCHSD1]	4.28 ± 0.28	4.51 ± 0.075	–	–
LAVSNMGARSKGQCPEPPIVVHCS [PTPN9]	3 ± 0.33	2.95 ± 0.28	–	–
AWFLPMPQKSLFFHHIPSTCQRVN [SLC19A2]	2.29 ± 0.48	2.23 ± 0.075	–	–
RYHFATGVWHQMGTDGYMPRELAS [KLHDC10]	2.6 ± 0.2	2.41 ± 0.24	–	–
HEPPFHLDREIRLQRLSHSGSRVR [SCNN1D]	4.27 ± 0.13	4.31 ± 0.21	–	–
